{
  "source": "paper PMC4795551",
  "about": "“Biochemistry and Crystal Structure of Ectoine Synthase: A Metal-Containing Member of the Cupin Superfamily” (PLoS ONE, 2016)",
  "proteins": {"B1": {"name": "ectoine synthase from Sphingopyxis alaskensis, (Sa)EctC-Strep-tag II protein (enzyme, UniProt Q1GNW6 1-137, looked up)", "chain": "MIVRNLGDIRKTDRNVRSDGWASARMLLKDDGMGFSFHVTTLFAGSELRMHYQNHLEAVLVLKGTGTIEDLATGEVHALRPGVMYALDDHDRHIVRPETDILTACVFNPPVTGREVHDESGAYPADPELAREPVAAD", "notes": "Ectoine synthase EctC (EC 4.2.1.108) of Sphingopyxis alaskensis, 137 amino acids; made from a codon-optimised synthetic ectC gene; printed stretches: 1-MIVRN-5 and 82-GVMYAL-87; Monomer with tag 16.3 kDa; In the crystals only Met-1 to Glu-115 (open) or Met-1 to Gly-121 (protomer A, semi-closed) are resolved; not shown: Strep-tag II, C-terminal, kept"}},
  "key": {"[1]": {"substrate": "CC(=O)NCC[C@H](N)C(=O)O", "test": "HPLC assay of ectoine formation, Michaelis-Menten", "format": "biochemical, Sphingopyxis alaskensis", "details": "20 mM Tris pH 8.5, 200 mM NaCl, 1 mM FeCl2, 15 °C, 20 min, 0-40 mM substrate"}, "[2]": {"substrate": "CC(=O)N[C@@H](CCN)C(=O)O", "test": "HPLC assay of ectoine formation, Michaelis-Menten", "format": "biochemical, Sphingopyxis alaskensis", "details": "20 mM Tris pH 8.5, 200 mM NaCl, 1 mM FeCl2, 15 °C, 20 min, 0-200 mM substrate"}, "[3]": {"target": "the molecule itself", "test": "SEC-MALS; HPLC-MALS; Bio SEC-5 HPLC column (300 Å), 20 mM Tris-HCl (pH 7.5), 200 mM NaCl; 100 μl of purified (Sa)EctC at 2 mg ml^-1 loaded"}},
  "data": [
    {"protein": "B1", "values": [
      {"measurement": "Km", "setting": "[1]", "value": "4.9 ± 0.5", "unit": "mM"},
      {"measurement": "kcat", "setting": "[1]", "value": 7.2, "unit": "s⁻¹"},
      {"measurement": "Km", "setting": "[2]", "value": "25.4 ± 2.9", "unit": "mM"},
      {"measurement": "kcat", "setting": "[2]", "value": 0.6, "unit": "s⁻¹"},
      {"measurement": "stoichiometry N", "setting": "[3]", "value": 2}
    ]}
  ]
}
